Measurements: US20240158512A1 (TRUEBINDING, published 2024)

Columns and labels:
Galectin-3 [1] = molecular target: T1, Galectin-3 (UniProt P17931 1-250, limits assumed); assay: ELISA biological activity (blocking ELISA, blocked partner not named); DP stored at 25° C. for 1 month
T1 construct: also called Gal3; GAL3

Galectin-3 [2] = molecular target: T1, Galectin-3; assay: BLI binding activity; DP stored at 25° C. for 3 months
Galectin-3 [3] = molecular target: T1, Galectin-3; assay: ELISA biological activity (blocking ELISA, blocked partner not named); DP stored at 5° C. for 12 months
Galectin-3 [4] = molecular target: T1, Galectin-3; assay: ELISA biological activity (blocking ELISA, blocked partner not named); DP stored at 25° C. for 6 months
Galectin-3 [5] = molecular target: T1, Galectin-3; assay: ELISA biological activity (blocking ELISA, blocked partner not named); DP stored at 5° C. for 3 months
Galectin-3 [6] = molecular target: T1, Galectin-3; assay: ELISA biological activity (blocking ELISA, blocked partner not named); DP stored at 5° C. for 9 months
Galectin-3 [7] = molecular target: T1, Galectin-3; assay: ELISA biological activity (blocking ELISA, blocked partner not named); DP stored at 25° C. for 3 months
Galectin-3 [8] = molecular target: T1, Galectin-3; assay: ELISA biological activity (blocking ELISA, blocked partner not named); DP stored at 5° C. for 1 month
Galectin-3 [9] = molecular target: T1, Galectin-3; assay: BLI binding activity; DP stored at 5° C. for 1 month
Galectin-3 [10] = molecular target: T1, Galectin-3; assay: ELISA biological activity (blocking ELISA, blocked partner not named); DP stored at 5° C. for 18 months
Galectin-3 [11] = molecular target: T1, Galectin-3; assay: BLI binding activity; DP stored at 5° C. for 6 months
Galectin-3 [12] = molecular target: T1, Galectin-3; assay: ELISA biological activity (blocking ELISA, blocked partner not named); DP stored at 5° C. for 6 months
Galectin-3 [13] = molecular target: T1, Galectin-3; assay: BLI binding activity; DP stored at 5° C. for 9 months
Galectin-3 [14] = molecular target: T1, Galectin-3; assay: BLI binding activity; DP stored at 5° C. for 18 months
Galectin-3 [15] = molecular target: T1, Galectin-3; assay: BLI binding activity; DP stored at 5° C. for 3 months
Galectin-3 [16] = molecular target: T1, Galectin-3; assay: BLI binding activity; DP stored at 25° C. for 1 month
Galectin-3 [17] = molecular target: T1, Galectin-3; assay: BLI binding activity; DP stored at 25° C. for 6 months
Galectin-3 [18] = molecular target: T1, Galectin-3; assay: BLI binding activity; DP stored at 5° C. for 12 months
Galectin-3 [19] = molecular target: T1, Galectin-3; assay: ELISA biological activity (blocking ELISA, blocked partner not named); 20 mg/mL DP, time 0; Time 0 (control), 20 mg/mL DP

T1 sequence (P17931 whole entry): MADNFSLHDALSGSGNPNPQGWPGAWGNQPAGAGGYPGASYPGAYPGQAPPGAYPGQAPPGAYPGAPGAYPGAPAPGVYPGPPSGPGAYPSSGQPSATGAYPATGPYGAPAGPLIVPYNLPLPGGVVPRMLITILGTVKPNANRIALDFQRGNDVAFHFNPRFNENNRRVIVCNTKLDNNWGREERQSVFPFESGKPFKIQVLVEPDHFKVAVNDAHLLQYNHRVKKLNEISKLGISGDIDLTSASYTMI

IC50 (Galectin-3 [1]): 1.8 µg/mL
Kd (Galectin-3 [2]): 3.1 nM
IC50 (Galectin-3 [3]): 1.5 µg/mL
IC50 (Galectin-3 [4]): 1.5 µg/mL
IC50 (Galectin-3 [5]): 1.5 µg/mL
IC50 (Galectin-3 [6]): 1.2 µg/mL
IC50 (Galectin-3 [7]): 1.5 µg/mL
IC50 (Galectin-3 [8]): 1.8 µg/mL
Kd (Galectin-3 [9]): 2.5 nM
IC50 (Galectin-3 [10]): 1.8 µg/mL
Kd (Galectin-3 [11]): 3.5 nM
IC50 (Galectin-3 [12]): 1.5 µg/mL
Kd (Galectin-3 [13]): 2.5 nM
Kd (Galectin-3 [14]): 2 nM
Kd (Galectin-3 [15]): 3 nM
Kd (Galectin-3 [16]): 2.5 nM
Kd (Galectin-3 [17]): 3.7 nM
Kd (Galectin-3 [18]): 3.1 nM
IC50 (Galectin-3 [19]): 2.5 µg/mL
B1: TB006 (antibody, human IgG4 S228P, kappa, V domains shown)
VH: QVQLVQSGAEVKKPGASVKVSCKASGYSFTNYYMHWVRQAPGQRLEWMGWIYPGSGNTNYNEKFQGRVTITADTSASTAYMELSSLRSEDTAVYYCSTAPGGFDVWGQGTTVTVSS
VL: DIVMTQTPLSLSVTPGQPASISCKSSKSLLHSDGITYLYWYLQKPGQSPQLLIYRMSNLASGVPDRFSGSGSGTDFTLKISRVEAEDVGVYYCAQMLEFPLTFGQGTKLEIKR
notes: Tested as drug product at 20 mg/mL in 20 mM L-histidine, 5 mM methionine, 100 mM NaCl, 0.02% polysorbate-80, pH 5.8; also called 4A11.H3L1; IMT006a
